Test results taken from US20240091374A1 (AbbVie / Abbott, published 2024).

Biological target: T1, Seizure-related homolog 6 (SEZ6) (UniProt Q53EL9 20-994, limits assumed)
T1 sequence (looked up): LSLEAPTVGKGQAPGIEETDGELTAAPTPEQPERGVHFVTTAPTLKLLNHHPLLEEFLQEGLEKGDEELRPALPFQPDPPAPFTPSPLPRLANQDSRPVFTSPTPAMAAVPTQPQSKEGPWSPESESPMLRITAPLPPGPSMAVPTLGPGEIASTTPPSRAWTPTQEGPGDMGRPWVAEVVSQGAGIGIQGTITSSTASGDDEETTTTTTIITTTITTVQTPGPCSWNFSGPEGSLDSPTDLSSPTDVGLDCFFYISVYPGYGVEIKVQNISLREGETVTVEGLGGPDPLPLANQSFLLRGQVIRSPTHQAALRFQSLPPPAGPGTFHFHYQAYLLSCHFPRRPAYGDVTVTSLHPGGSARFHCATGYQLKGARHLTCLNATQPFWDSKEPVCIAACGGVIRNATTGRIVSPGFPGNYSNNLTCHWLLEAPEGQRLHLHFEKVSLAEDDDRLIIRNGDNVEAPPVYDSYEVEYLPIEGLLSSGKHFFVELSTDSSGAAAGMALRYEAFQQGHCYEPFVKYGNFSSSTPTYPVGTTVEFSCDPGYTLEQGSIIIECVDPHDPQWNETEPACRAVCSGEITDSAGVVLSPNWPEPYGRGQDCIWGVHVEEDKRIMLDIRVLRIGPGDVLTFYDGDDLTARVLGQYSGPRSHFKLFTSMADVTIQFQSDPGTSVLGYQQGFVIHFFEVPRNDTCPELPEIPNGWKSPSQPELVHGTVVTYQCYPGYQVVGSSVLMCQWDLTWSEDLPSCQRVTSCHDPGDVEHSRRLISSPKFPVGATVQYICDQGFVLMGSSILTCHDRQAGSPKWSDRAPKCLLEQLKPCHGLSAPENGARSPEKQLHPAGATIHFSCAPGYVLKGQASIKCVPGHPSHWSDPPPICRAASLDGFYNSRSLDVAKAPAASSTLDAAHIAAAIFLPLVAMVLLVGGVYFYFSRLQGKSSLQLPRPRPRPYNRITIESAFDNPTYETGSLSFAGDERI
Test: cell-based or functional assay

B1: ADC-1 (anti-SEZ6 antibody Ab conjugated to TOP1i linker drug LD1, formula (IV), DAR about 6) (antibody, V domains shown)
VH: EVQLVQSGAEVKKPGESLKISCKGSGYSFTSSWINWVRQMPGKGLEWMGRIYPGEGDTNYNGNFEGQVTISADKSISTAYLQWSSLKASDTAMYYCTRGLVMDYWGQGTLVTVSS
VL: EIVLTQSPATLSLSPGERATLSCRASQSVDYNGISYMHWYQQKPGQAPRLLIYAASNVQSGIPARFSGSGSGTDFTLTISSLEPEDFAVYYCQQSIEDPPTFGGGTKVEIKR
modifications: linker drug LD1 (Example 1J, formula (III)) on sulfhydryl groups of cysteine residues after global reduction; positions not given; linker drug LD1 (Example 1J, formula (III)) on sulfhydryl groups of cysteine residues after global reduction; DAR of about 6 over the whole antibody, predominant species n = 6; positions not given
B1 was tested, and the “growth inhibitory IC50, CellTiter-Glo cell viability, 10 days, COR-L95 cells (SEZ6 mRNA positive)” value was 0.33 nM, the “growth inhibitory IC50, CellTiter-Glo cell viability, 10 days, NCI-H146 cells (SEZ6 mRNA positive)” value was 0.05 nM and the “growth inhibitory IC50, CellTiter-Glo cell viability, 10 days, NCI-H524 cells (SEZ6 mRNA positive)” value was 0.33 nM. For the same binder, the “growth inhibitory IC50, CellTiter-Glo cell viability, 10 days, NCI-H526 cells (SEZ6 mRNA positive)” value was 0.1 nM, the “growth inhibitory IC50, CellTiter-Glo cell viability, 10 days, NCI-H1963 cells (SEZ6 mRNA positive)” value was 4.63 nM and the “growth inhibitory IC50, CellTiter-Glo cell viability, 10 days, row without a cell line label below COR-L95 (taken as a second COR-L95 value)” value was 0.29 nM.
